Measurements published in US20220096653A1, “CONJUGATE COMPRISING LIGAND AND CEACAM5 ANTIBODY FAB FRAGMENT” (ASTELLAS PHARMA INC., priority 2019, published 2022).

B1: (Y-S1-X)p-Fab^2 with Y Gd/DOTA, S1 -NH-CH2-(1,3-Ph)-C(═O)-, X -Gly-Lys*-Z2(#S)- (Fab, V domains shown)
VH: EVQLVESGGGLVQPGGSLRLSCAASGFNIRDTYMHWVRQAPGKGLEWVARIDPANGNSRYVPKFQGRFTISADTSRNTAYLQMNSLRAEDTAVYYCAPFGYYVSDYAMAYWGQGTLVTVSS
VL: DIQLTQSPSSLSASVGDRVTITCRAGESVDIFGVGFLHWYQQKPGKAPKLLIYRASNLESGIPSRFSGSGSRTDFTLTISSLQPEDFATYYCQQTNEDPYTFGQGTKVEIKR
modifications: labeling may sit on this chain; sites not stated; labeling portion (MW 1059) on amino groups of the Fab, sites and chain not stated; 1-2 per Fab by MS
notes: also called Ex-No 6; conjugate 6
B2: [Gd/DOTA-[2,5-(1,2,3,4-tetrahydroisoquinoline)]-C(═O)-Met-Gly-Lys*-Z2(#N)]p-Fab^2 (Fab, V domains shown)
VH: B1 VH
VL: B1 VL
modifications: labeling may sit on this chain; sites not stated; labeling portion (MW 1115) on amino groups of the Fab, sites and chain not stated; 1-2 per Fab by MS
notes: also called Ex-No 33; Conjugate No. 33
B3: (Y-S1-X)p-Fab^2 with Y Gd/DOTA, S1 - (bond), X -Gly-Tyr*-CH2-C(═O)-NH-(CH2O)3-CH2-C(═O)-NH-(CH2)2-Z1(#N)- (Fab, V domains shown)
VH: B1 VH
VL: B1 VL
modifications: labeling may sit on this chain; sites not stated; labeling portion (MW 1149) on amino groups of the Fab, sites and chain not stated; 1-2 per Fab by MS
notes: also called Ex-No 17; conjugate 17
B4: [Gd/DOTA-NH-CH2-(1,3-Ph)-C(═O)-Asp-Gly-Lys*-Z2(#N)]p-Fab^2 (Fab, V domains shown)
VH: B1 VH
VL: B1 VL
modifications: labeling may sit on this chain; sites not stated; labeling portion (MW 1073) on amino groups of the Fab, sites and chain not stated; 1-3 per Fab by MS
notes: also called Ex-No 11; Conjugate No. 11
B5: (Y-S1-X)p-Fab^2 with Y Gd/DOTA, S1 - (bond), X -Gly-Tyr*-CH2-C(═O)-NH-(CH2)2-Z1(#S)- (Fab, V domains shown)
VH: B1 VH
VL: B1 VL
modifications: labeling may sit on this chain; sites not stated; labeling portion (MW 1061) on amino groups of the Fab, sites and chain not stated; 1-3 per Fab by MS
notes: also called Ex-No 7; conjugate 7
B6: [Gd/DOTA-NH-CH2-(1,3-Ph)-C(═O)-Met-Gly-Lys*-Z2(#S)]p-Fab^2 (Fab, V domains shown)
VH: B1 VH
VL: B1 VL
modifications: labeling may sit on this chain; sites not stated; labeling portion (MW 1190) bound via 2-iminothiolane-treated amino groups of the Fab, sites and chain not stated; 1-2 per Fab by MS
notes: also called Ex-No 24; Conjugate No. 24
B7: (Y-S1-X)p-Fab^2 with Y Gd/DOTA, S1 - (bond), X -Met-Ile-Lys*-Z2(#N)- (Fab, V domains shown)
VH: B1 VH
VL: B1 VL
modifications: labeling may sit on this chain; sites not stated; labeling portion (MW 1012) on amino groups of the Fab, sites and chain not stated; 1-2 per Fab by MS
notes: also called Ex-No 10; conjugate 10
B8: [Gd/4arm-DOTA-CH2-(1,4-Ph)-NH-C(═S)-NH-CH2-(1,3-Ph)-C(═O)-Met-Gly-Lys*-Z2(#S)]p-Fab^2 (Fab, V domains shown)
VH: B1 VH
VL: B1 VL
modifications: labeling may sit on this chain; sites not stated; labeling portion (MW 1355) bound via 2-iminothiolane-treated amino groups of the Fab, sites and chain not stated; 1-2 per Fab by MS
notes: also called Ex-No 40; Conjugate No. 40
B9: (Y-S1-X)p-Fab^2 with Y Gd/DOTA, S1 -NH-(CH2CH2O)3-CH2-C(═O)-NH-CH2-(1,3-Ph)-C(═O)-, X -Gly-Lys*-Z2(#S)- (Fab, V domains shown)
VH: B1 VH
VL: B1 VL
modifications: labeling may sit on this chain; sites not stated; labeling portion (MW 1248) on amino groups of the Fab, sites and chain not stated; 1-2 per Fab by MS
notes: also called Ex-No 25; conjugate 25
B10: (Y-S1-X)p-Fab^2 with Y Gd/DOTA, S1 - (bond), X -Met-Ile-NH-(CH2)2-Z1(#S)- (Fab, V domains shown)
VH: B1 VH
VL: B1 VL
modifications: labeling may sit on this chain; sites not stated; labeling portion (MW 1027) on amino groups of the Fab, sites and chain not stated; 1-2 per Fab by MS
notes: also called Ex-No 8; conjugate 8
B11: (Y-S1-X)p-Fab^2 with Y Gd/DOTA, S1 - (bond), X -Gly-Tyr-Lys*-Z2(#N)- (Fab, V domains shown)
VH: B1 VH
VL: B1 VL
modifications: labeling may sit on this chain; sites not stated; labeling portion (MW 988) on amino groups of the Fab, sites and chain not stated; 1-4 per Fab by MS
notes: also called Ex-No 19; conjugate 19
B12: [Gd/DOTA-NH-(CH2CH2O)3-CH2-C(═O)-NH-CH2-(1,3-Ph)-C(═O)-Gly-Lys*-Z2(#N)]p-Fab^2 (Fab, V domains shown)
VH: B1 VH
VL: B1 VL
modifications: labeling may sit on this chain; sites not stated; labeling portion (MW 1147) on amino groups of the Fab, sites and chain not stated; 1-3 per Fab by MS
notes: also called Ex-No 15; Conjugate No. 15
B13: [Gd/DOTA-NH-(CH2CH2O)3-CH2-C(═O)-NH-CH2-(1,3-Ph)-C(═O)-Met-Gly-Lys*-Z2(#N)]p-Fab^2 (Fab, V domains shown)
VH: B1 VH
VL: B1 VL
modifications: labeling may sit on this chain; sites not stated; labeling portion (MW 1278) on amino groups of the Fab, sites and chain not stated; 1-2 per Fab by MS
notes: also called Ex-No 29; Conjugate No. 29
B14: (Y-S1-X)p-Fab^2 with Y Gd/DOTA, S1 spacer (a), X -Gly-Lys*-Z2(#N)- (Fab, V domains shown)
VH: B1 VH
VL: B1 VL
modifications: labeling may sit on this chain; sites not stated; labeling portion (MW 936) on amino groups of the Fab, sites and chain not stated; 1-3 per Fab by MS
notes: also called Ex-No 23; conjugate 23
B15: (Y-S1-X)p-Fab^2 with Y Gd/DOTA, S1 - (bond), X -Gly-Tyr-NH-(CH2)5-Z1(#S)- (Fab, V domains shown)
VH: B1 VH
VL: B1 VL
modifications: labeling may sit on this chain; sites not stated; labeling portion (MW 1045) on amino groups of the Fab, sites and chain not stated; 1-3 per Fab by MS
notes: also called Ex-No 37; conjugate 37
B16: (Y-S1-X)p-Fab^2 with Y Gd/DOTA, S1 spacer (m), X -Met-Gly-Lys*-Z2(#N)- (Fab, V domains shown)
VH: B1 VH
VL: B1 VL
modifications: labeling may sit on this chain; sites not stated; labeling portion (MW 1107) on amino groups of the Fab, sites and chain not stated; 1 per Fab by MS
notes: also called Ex-No 42; conjugate 42
B17: [Gd/4arm-DOTA-CH2-(1,4-Ph)-NH-C(═S)-Gly-Phe-Lys*-Z2(#N)]p-Fab^2 (Fab, V domains shown)
VH: B1 VH
VL: B1 VL
modifications: labeling may sit on this chain; sites not stated; labeling portion (MW 1136) on amino groups of the Fab, sites and chain not stated; 1-3 per Fab by MS
notes: also called Ex-No 12; Conjugate No. 12
B18: [Gd/DOTA-NH-(CH2CH2O)3-CH2-C(═O)-NH-CH2-(1,3-Ph)-C(═O)-Met-Gly-Lys*-Z2(#S)]p-Fab^2 (Fab, V domains shown)
VH: B1 VH
VL: B1 VL
modifications: labeling may sit on this chain; sites not stated; labeling portion (MW 1380) bound via 2-iminothiolane-treated amino groups of the Fab, sites and chain not stated; 1 per Fab by MS
notes: also called Ex-No 35; Conjugate No. 35

Target: T1, CEACAM5 (R&D Systems, 4128-CM-050) (human, UniProt P06731 35-685)
T1 construct: Immobilised on the ELISA plate; also called human CEACAM5
T1 sequence (looked up): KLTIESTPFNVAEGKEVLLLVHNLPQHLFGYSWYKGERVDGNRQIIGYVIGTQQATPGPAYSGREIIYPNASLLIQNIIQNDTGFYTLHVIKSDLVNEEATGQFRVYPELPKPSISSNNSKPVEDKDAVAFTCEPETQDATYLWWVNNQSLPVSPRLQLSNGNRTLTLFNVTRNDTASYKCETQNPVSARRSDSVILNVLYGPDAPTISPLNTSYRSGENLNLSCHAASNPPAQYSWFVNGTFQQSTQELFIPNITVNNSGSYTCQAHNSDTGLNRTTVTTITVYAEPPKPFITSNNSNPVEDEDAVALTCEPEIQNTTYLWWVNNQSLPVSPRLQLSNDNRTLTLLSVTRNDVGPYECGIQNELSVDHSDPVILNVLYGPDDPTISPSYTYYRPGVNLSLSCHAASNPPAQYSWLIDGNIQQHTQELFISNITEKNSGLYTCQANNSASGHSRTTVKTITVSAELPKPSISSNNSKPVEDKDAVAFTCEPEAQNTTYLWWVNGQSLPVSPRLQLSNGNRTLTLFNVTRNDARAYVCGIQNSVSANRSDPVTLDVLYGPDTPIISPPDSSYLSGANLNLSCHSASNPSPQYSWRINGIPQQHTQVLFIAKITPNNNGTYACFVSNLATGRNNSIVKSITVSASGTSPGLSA
Test: ELISA on immobilised CEACAM5, 4-parameter fit, duplicate
Description: Each anti-human CEACAM5 antibody Fab fragment conjugate prepared in Example 2 was subjected to ELISA to evaluate the binding activity thereof to CEACAM5. In the present test, a phosphate buffer (Nacalai Tesque Inc., 0.1 mol/L-Phosphate Buffer Solution (pH 7.2)) prepared to 10 mM by diluting 10-fold with distilled water was used as a solvent for an antigen immobilization liquid, and 20×PBS/Tween 20 Buffer (Thermo Fisher Scientific Inc., 28352) diluted 20-fold with distilled water was used as a wash liquid. In addition, for bovine serum albumin (BSA) used in the present test, 30% Bovine Serum Albumin solution (Sigma-Aldrich, Inc., A9576-50ML) was added in an appropriate proportion for use. CEACAM5 (R&D Systems, 4128-CM-050) was diluted with a 10 mM phosphate buffer (pH 7.2) to 0.1 μg/mL, and added to a Nunc MaxiSorp White 384 plate (Nunc, 4603272) at 30 μL per well, and the plate was incubated overnight at 4° C. for immobilization. The CEACAM5 immobilization liquid was removed by reverse centrifugation, and then blocking was carried out by adding a PBS/Tween 20 buffer containing 5.0% BSA. Thereafter, the blocking solution was removed by reverse centrifugation, a solution of each CEACAM5 antibody Fab² fragment conjugate described above or a Fab² fragment having no labeling portion (PB009-01) as a control at about 10000 ng/mL was diluted in 14 steps by 3-fold dilution using a PBS/Tween 20 buffer containing 1.0% BSA, and 30 μL was added per well and incubated at room temperature for 60 minutes. The plate was washed 3 times with a PBS/Tween 20 buffer, and Horseradish Peroxidase (HRP)-labeled goat anti-human IgG (H+L chain) antibody (MBL Life Sciences, 206) diluted 1000-fold using a PBS/Tween 20 buffer containing 5.0% BSA was added at 30 μL per well and incubated at room temperature for 30 minutes. The plate was washed 3 times with a PBS/Tween 20 buffer, and ECL Prime Western Blotting DETECTION Reagent (GE Healthcare, RPN2232) as a substrate was added at 30 μL per well. The substrate was incubated at room temperature for 15 minutes, and then a signal value thereof was measured using an Envision counter (PerkinElmer, Inc.).
The test for each antibody was carried out in duplicate, and an EC₅₀ value was calculated using a 4-parameter logistic curve model.

Binder | EC50
B1 | 0.14 nM
B2 | 0.33 nM
B3 | 0.23 nM
B4 | 0.14 nM
B5 | 0.17 nM
B6 | 0.25 nM
B7 | 0.11 nM
B8 | 0.22 nM
B9 | 0.32 nM
B10 | 0.11 nM
B11 | 0.26 nM
B12 | 0.13 nM
B13 | 0.3 nM
B14 | 0.33 nM
B15 | 0.23 nM
B16 | 0.21 nM
B17 | 0.11 nM
B18 | 0.43 nM
